In the RNAGym collection of RNA variant scans (doi:10.7554/elife.80360):

B1: CPEB3 Ribozyme (parent)
chain: GGGGGCCACAGCAGAAGCGUUCACGUCGCGGCCCCUGUCAGAUUCUGGUGAAUCUGCGAAUUCUGCUGU

Variants of: B1
Test: self-cleavage, relative activity (ratio to wild type); higher = more cleavage; co-transcriptional

Variant | self-cleavage
C29A C35U | 0.496
C29A C35G | 0.276
C29G G31U | 0.131
C29G G31A | 0.146
C29U C33G | 0.226
C29U C33A | 0.355
C29G C35A | 0.234
C29G C35U | 0.307
C29G C35G | 0.301
G30A C33A | 0.203
G30A C33U | 0.691
C29G G56A | 0.299
C29G G56U | 0.292
C29G G56C | 0.225
G30A C54U | 0.876
G30A C54A | 0.431
G30C C63G | 0.329
G30C C63U | 0.645
C29G U36A | 0.157
C29G U36G | 0.236
G30A G47C | 0.93
C29G U61A | 0.57
G30C A52G | 0.724
G30C A52C | 0.506

Variant | self-cleavage
G30C A52U | 0.556
C29G U43G | 0.393
C29G G50U | 0.535
C29G G50A | 0.609
G30A U62C | 0.497
G30C A60C | 0.285
G30C A60G | 0.411
G30C A60U | 0.242
C29U A60G | 0.345
C29U A60U | 0.23
G30C C57G | 0.223
C29U U67A | 0.21
C29U U67G | 0.359
C29U U67C | 0.308
C29G G68A | 0.845
C29G G68C | 0.715
C29G A59C | 0.272
C29G A59U | 0.203
G30A C66G | 0.61
G30A C66U | 0.861
C29A A51G | 0.706
C29A A51U | 0.646
C29A G30C | 0.205
C29A G30U | 0.216

Variant | self-cleavage
C29A G30A | 0.264
C29U G31U | 0.221
C29U G31A | 0.315
G30A U49G | 0.674
G30A U49C | 0.909
C29A U61A | 0.543
G30C C35G | 0.15
C29G G37U | 0.185
C29A U49G | 0.737
C29A U49C | 0.809
C29A U62C | 0.644
C29A U62A | 0.409
G30A G56A | 0.713
G30A G56C | 0.413
G30A G56U | 0.693
C29U C39U | 0.193
C29U C39A | 0.16
C29U G58A | 0.372
C29U G58U | 0.641
G30C A59G | 0.708
G30C A59C | 0.306
G30C A59U | 0.295
C29G U64C | 0.369
C29G U64G | 0.279

Variant | self-cleavage
C29G C57U | 0.206
C29G C57G | 0.183
C29G C57A | 0.215
G30A U64C | 0.795
G30C C32A | 0.194
C29G G47C | 0.558
C29G G47A | 0.553
C29G G47U | 0.612
G30A U38C | 0.531
G30A U38G | 0.274
C29A G37C | 0.186
C29A G37U | 0.147
G30C C66A | 0.397
G30C C66U | 0.666
G30C C66G | 0.396
C29G C45G | 0.407
C29G C45A | 0.402
C29U G65U | 0.167
C29U G65A | 0.19
C29U G65C | 0.272
G30A A59U | 0.361
G30A G68A | 0.988
G30A U46A | 0.723
G30A U46C | 0.866

Variant | self-cleavage
G30A G65A | 0.627
G30A G65C | 0.353
C29G C63U | 0.418
C29G C63A | 0.23
G30A G50C | 0.774
G30A G50A | 0.927
C29A C45U | 0.731
C29A U43A | 0.32
C29U C63U | 0.253
C29A G50U | 0.747
C29A G50A | 0.735
C29A C39G | 0.431
C29A C39U | 0.372
G30C C34U | 0.6
G30C C34A | 0.243
C29A A59G | 0.715
C29A U36C | 0.428
C29A U36A | 0.215
C29U U62C | 0.211
C29U U62G | 0.21
C29U U61A | 0.244
C29U U61G | 0.218
G30A C63A | 0.413
C29U C34U | 0.495

Variant | self-cleavage
C29U C34A | 0.299
C29U C34G | 0.276
C29U G47A | 0.598
C29U G47C | 0.62
C29U G30U | 0.169
C29U G30C | 0.232
C29U G68A | 0.586
C29U G68U | 0.515
C29U A52C | 0.417
C29U A52G | 0.529
C29U A52U | 0.396
G30C C39U | 0.396
G30C C39A | 0.218
C29G C66U | 0.418
C29G C66A | 0.312
C29A U55C | 0.38
C29A U55A | 0.273
C29G A52U | 0.504
C29G A52G | 0.53
G30C C45U | 0.603
G30C C45A | 0.51
C29U A51G | 0.537
C29G | 0.618
C29U | 0.557

Variant | self-cleavage
G30A A52C | 0.739
G30A A52U | 0.806
C29G G41A | 0.236
C29U G37A | 0.157
C29U G37C | 0.162
C29U G37U | 0.121
C29A C54A | 0.312
G30A G41C | 0.215
G30A G41A | 0.382
C29U G56A | 0.244
C29U G56U | 0.198
G30A A42G | 0.817
C29A G31U | 0.221
C29A G31C | 0.175
C29A G31A | 0.296
C29A G65U | 0.25
C29A G65C | 0.392
C29A G65A | 0.371
C29U U43C | 0.301
C29G U53C | 0.193
C29G U53A | 0.308
C29G U53G | 0.389
C29A C34U | 0.702
